Results from article PMC10638775.

Biological target: FGFR1 on NIH3T3 cells (mouse (NIH3T3 fibroblasts)) (UniProt P16092)
Test: flow cytometry
Details: SPR: Biacore T200, CM5 amine coupling, HBS running buffer (pH, salt, temperature not stated), flow cytometry: PBS, 1% BSA, 0.1% sodium azide, room temperature

FGFR1 on NIH3T3 cells (mouse (NIH3T3 fibroblasts)), sequence (P16092 22-822): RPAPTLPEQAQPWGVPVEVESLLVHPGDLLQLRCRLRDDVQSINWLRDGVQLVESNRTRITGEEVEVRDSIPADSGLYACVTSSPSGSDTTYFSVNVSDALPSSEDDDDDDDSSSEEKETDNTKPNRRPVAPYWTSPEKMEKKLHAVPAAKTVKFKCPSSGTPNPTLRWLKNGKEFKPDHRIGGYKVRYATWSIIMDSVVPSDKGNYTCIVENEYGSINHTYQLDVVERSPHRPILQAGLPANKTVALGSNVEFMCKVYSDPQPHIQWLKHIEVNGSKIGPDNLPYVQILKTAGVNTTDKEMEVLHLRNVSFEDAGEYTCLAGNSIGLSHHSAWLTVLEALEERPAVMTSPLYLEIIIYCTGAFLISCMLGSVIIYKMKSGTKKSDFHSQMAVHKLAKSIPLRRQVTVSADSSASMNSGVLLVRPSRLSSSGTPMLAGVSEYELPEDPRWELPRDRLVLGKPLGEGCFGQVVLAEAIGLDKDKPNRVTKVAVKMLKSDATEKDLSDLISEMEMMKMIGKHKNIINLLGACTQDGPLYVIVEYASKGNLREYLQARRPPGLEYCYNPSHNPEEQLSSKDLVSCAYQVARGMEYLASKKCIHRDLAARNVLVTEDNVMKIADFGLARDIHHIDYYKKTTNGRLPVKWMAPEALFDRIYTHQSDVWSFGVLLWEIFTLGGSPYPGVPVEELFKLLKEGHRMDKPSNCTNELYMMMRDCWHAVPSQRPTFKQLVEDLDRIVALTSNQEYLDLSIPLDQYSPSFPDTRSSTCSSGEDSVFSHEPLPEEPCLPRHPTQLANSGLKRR

## GCCGCGTCTTTATGGCTGGGGATGGTGTGGGTTGCGGC [FAM-FGFR-binder]
  Kd: 0.039 µM
